Values of other authors in article PMC6858787.

Molecular target: CheY (Thermotoga maritima) (UniProt Q56312)
Chain of UniProt Q56312 (Q56312 whole entry): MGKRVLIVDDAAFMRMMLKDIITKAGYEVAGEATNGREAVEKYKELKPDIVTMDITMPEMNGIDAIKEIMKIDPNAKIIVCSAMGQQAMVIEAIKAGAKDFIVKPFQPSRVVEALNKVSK

Kd: 0.2 µM
Substance: CheA CheY binding domain (from UniProt Q56310)
